B1: Speckle-type POZ protein (Homo sapiens), O43791 (parent)
chain: MSRVPSPPPPAEMSSGPVAESWCYTQIKVVKFSYMWTINNFSFCREEMGEVIKSSTFSSGANDKLKWCLRVNPKGLDEESKDYLSLYLLLVSCPKSEVRAKFKFSILNAKGEETKAMESQRAYRFVQGKDWGFKKFIRRDFLLDEANGLLPDDKLTLFCEVSVVQDSVNISGQNTMNMVKVPECRLADELGGLWENSRFTDCCLCVAGQEFQAHKAILAARSPVFSAMFEHEMEESKKNRVEINDVEPEVFKEMMCFIYTGKAPNLDKMADDLLAAADKYALERLKVMCEDALCSNLSVENAAEILILADLHSADQLKTQAVDFINYHASDVLETSGWKSMVVSHPHLVAEAYRSLASAQCPFLGPPRKRLKQS
partner: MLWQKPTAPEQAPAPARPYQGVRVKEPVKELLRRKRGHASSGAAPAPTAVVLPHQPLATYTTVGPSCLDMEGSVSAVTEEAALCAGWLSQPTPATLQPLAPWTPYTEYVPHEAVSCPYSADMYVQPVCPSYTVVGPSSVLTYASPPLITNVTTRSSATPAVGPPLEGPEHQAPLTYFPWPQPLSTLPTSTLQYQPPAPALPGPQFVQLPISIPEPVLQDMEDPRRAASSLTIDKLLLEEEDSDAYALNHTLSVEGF
B2: Speckle-type POZ protein (Homo sapiens), O43791 (parent)
chain: B1 chain
partner: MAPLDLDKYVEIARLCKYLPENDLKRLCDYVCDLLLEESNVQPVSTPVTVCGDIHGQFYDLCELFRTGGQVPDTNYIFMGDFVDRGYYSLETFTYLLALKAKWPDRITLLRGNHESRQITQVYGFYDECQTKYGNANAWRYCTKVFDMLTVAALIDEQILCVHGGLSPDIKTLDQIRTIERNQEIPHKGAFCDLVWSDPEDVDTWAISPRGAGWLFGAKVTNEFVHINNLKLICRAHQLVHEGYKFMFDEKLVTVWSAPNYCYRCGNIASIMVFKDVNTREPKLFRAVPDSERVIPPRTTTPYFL
B3: Speckle-type POZ protein (Homo sapiens), O43791 (parent)
chain: B1 chain
partner: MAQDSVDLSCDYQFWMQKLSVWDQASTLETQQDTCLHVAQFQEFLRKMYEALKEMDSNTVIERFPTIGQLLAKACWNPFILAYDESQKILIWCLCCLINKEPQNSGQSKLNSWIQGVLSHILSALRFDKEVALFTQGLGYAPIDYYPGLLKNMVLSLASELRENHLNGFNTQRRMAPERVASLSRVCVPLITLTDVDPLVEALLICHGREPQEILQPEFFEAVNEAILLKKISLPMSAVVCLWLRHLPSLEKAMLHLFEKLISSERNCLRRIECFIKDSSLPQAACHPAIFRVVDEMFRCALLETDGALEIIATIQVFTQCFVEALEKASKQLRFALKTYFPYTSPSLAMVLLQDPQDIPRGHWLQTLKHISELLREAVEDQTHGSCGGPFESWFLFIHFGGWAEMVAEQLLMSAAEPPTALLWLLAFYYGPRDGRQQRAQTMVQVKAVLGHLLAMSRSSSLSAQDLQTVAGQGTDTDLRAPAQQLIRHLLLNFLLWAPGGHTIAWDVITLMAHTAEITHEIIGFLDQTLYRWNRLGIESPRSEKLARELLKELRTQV
B4: Speckle-type POZ protein (Homo sapiens), O43791 (parent)
chain: B1 chain
partner: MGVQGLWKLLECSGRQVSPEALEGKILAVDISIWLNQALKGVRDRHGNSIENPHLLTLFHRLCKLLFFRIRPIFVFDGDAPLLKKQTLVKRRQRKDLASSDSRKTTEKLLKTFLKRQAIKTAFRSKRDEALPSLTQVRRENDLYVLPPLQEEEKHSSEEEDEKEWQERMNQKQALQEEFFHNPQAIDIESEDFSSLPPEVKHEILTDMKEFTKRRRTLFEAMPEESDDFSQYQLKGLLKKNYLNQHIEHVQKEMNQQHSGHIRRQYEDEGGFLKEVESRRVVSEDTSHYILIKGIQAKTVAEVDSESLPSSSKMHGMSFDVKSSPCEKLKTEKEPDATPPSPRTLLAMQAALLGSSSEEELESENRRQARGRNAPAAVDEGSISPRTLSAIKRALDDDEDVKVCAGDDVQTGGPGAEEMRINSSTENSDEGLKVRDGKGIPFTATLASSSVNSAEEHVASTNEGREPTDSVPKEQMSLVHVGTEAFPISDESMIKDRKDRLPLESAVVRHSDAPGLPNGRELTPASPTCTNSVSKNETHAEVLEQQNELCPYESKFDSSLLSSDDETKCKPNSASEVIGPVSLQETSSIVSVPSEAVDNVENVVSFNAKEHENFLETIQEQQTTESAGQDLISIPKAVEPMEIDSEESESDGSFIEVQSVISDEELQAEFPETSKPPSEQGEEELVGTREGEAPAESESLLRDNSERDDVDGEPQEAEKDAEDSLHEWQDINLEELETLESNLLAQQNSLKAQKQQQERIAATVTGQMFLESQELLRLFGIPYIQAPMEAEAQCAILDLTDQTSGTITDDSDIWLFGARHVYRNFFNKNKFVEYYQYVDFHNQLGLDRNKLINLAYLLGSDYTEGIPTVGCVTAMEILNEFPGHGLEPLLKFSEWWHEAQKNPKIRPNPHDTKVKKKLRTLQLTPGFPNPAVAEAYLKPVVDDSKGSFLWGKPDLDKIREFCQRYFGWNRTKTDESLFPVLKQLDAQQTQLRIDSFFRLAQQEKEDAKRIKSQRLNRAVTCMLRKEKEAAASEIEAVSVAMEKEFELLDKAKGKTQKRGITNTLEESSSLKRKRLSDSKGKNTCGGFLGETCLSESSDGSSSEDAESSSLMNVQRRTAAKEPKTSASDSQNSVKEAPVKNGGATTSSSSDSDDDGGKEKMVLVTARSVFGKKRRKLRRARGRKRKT
B5: Speckle-type POZ protein (Homo sapiens), O43791 (parent)
chain: B1 chain
partner: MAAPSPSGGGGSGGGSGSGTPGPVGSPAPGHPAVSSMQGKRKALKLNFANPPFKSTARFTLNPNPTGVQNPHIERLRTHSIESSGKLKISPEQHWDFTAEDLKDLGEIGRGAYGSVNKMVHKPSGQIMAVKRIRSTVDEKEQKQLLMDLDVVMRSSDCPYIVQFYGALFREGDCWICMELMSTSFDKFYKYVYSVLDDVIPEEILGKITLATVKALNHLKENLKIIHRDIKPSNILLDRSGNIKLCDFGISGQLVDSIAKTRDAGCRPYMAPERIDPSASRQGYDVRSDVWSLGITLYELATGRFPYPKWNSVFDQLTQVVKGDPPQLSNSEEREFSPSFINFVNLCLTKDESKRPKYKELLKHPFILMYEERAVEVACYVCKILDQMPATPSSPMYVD
B6: Speckle-type POZ protein (Homo sapiens), O43791 (parent)
chain: B1 chain
partner: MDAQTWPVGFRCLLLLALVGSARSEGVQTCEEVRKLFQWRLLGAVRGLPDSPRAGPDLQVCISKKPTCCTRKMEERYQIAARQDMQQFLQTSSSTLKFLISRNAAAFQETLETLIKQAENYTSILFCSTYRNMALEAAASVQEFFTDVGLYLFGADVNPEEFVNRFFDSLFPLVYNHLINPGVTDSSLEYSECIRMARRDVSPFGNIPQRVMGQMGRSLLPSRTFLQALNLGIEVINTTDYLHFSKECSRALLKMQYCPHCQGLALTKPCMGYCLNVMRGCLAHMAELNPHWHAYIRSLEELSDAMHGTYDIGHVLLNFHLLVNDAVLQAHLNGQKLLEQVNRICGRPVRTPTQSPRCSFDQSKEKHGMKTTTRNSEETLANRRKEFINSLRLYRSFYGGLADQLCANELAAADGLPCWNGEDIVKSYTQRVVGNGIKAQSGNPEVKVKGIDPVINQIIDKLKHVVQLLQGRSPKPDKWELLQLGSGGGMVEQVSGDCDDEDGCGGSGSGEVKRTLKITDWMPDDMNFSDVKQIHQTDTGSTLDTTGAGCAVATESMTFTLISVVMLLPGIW
B7: Speckle-type POZ protein (Homo sapiens), O43791 (parent)
chain: B1 chain
partner: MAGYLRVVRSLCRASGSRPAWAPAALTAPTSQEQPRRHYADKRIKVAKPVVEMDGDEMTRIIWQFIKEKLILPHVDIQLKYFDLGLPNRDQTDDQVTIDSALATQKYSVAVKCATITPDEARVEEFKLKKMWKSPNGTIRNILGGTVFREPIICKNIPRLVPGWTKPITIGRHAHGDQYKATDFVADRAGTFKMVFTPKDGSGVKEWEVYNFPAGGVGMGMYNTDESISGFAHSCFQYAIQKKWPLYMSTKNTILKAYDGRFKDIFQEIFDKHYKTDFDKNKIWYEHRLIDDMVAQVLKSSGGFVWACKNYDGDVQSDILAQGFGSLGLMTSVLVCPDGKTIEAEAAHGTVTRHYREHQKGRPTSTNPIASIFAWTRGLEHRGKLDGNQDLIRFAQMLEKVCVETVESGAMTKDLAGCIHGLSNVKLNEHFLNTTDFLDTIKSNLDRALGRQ
B8: Speckle-type POZ protein (Homo sapiens), O43791 (parent)
chain: B1 chain
partner: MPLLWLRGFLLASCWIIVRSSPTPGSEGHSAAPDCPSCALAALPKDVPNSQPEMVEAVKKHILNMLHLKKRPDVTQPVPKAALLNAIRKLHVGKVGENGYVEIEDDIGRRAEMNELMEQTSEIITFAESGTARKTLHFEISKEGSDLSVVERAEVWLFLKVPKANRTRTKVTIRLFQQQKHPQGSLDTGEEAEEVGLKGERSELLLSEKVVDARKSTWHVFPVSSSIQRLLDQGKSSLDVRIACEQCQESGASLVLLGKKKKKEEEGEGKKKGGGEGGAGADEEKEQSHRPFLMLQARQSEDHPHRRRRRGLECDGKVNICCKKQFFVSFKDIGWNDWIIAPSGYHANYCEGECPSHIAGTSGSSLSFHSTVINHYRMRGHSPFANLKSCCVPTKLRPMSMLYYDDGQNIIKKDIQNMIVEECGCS

Variants of: B1
Conditions: with obf1_human POU2AF1, Q16633

Variant	effect of a mutation on the interaction
Y87C	with no effect

Variants of: B1
Conditions: with obf1_human POU2AF1, Q16633
Remark: another data set of the same source

Variant	effect of a mutation on the interaction
F102C	with no effect

Variants of: B2
Conditions: with ppp6_human PPP6C

Variant	effect of a mutation on the interaction
F133V	with no effect

Variants of: B2
Conditions: with ppp6_human PPP6C
Remark: another data set of the same source

Variant	effect of a mutation on the interaction
F133L	with no effect

Variants of: B2
Conditions: with ppp6_human PPP6C
Remark: another data set of the same source

Variant	effect of a mutation on the interaction
F102C	with no effect

Variants of: B2
Conditions: with ppp6_human PPP6C
Remark: another data set of the same source

Variant	effect of a mutation on the interaction
Y87C	with no effect

Variants of: B3
Conditions: with fancc_human FANCC

Variant	effect of a mutation on the interaction
F133L	with no effect

Variants of: B3
Conditions: with fancc_human FANCC
Remark: another data set of the same source

Variant	effect of a mutation on the interaction
F133V	with no effect

Variants of: B3
Conditions: with fancc_human FANCC
Remark: another data set of the same source

Variant	effect of a mutation on the interaction
F102C	with no effect

Variants of: B3
Conditions: with fancc_human FANCC
Remark: another data set of the same source

Variant	effect of a mutation on the interaction
Y87C	with no effect

Variants of: B4
Conditions: with ercc5_human ERCC5, P28715

Variant	effect of a mutation on the interaction
Y87C	with no effect

Variants of: B4
Conditions: with ercc5_human ERCC5, P28715
Remark: another data set of the same source

Variant	effect of a mutation on the interaction
F133V	with no effect

Variants of: B5
Conditions: with mp2k4_human MAP2K4, P45985

Variant	effect of a mutation on the interaction
F102C	with no effect

Variants of: B5
Conditions: with mp2k4_human MAP2K4, P45985
Remark: another data set of the same source

Variant	effect of a mutation on the interaction
Y87C	with no effect

Variants of: B6
Conditions: with gpc5_human GPC5, P78333

Variant	effect of a mutation on the interaction
F133L	with no effect

Variants of: B6
Conditions: with gpc5_human GPC5, P78333
Remark: another data set of the same source

Variant	effect of a mutation on the interaction
F133V	with no effect

Variants of: B6
Conditions: with gpc5_human GPC5, P78333
Remark: another data set of the same source

Variant	effect of a mutation on the interaction
Y87C	with no effect

Variants of: B6
Conditions: with gpc5_human GPC5, P78333
Remark: another data set of the same source

Variant	effect of a mutation on the interaction
F102C	with no effect

Variants of: B7
Conditions: with idhp_human IDH2, P48735

Variant	effect of a mutation on the interaction
F102C	with no effect

Variants of: B7
Conditions: with idhp_human IDH2, P48735
Remark: another data set of the same source

Variant	effect of a mutation on the interaction
F133L	with no effect

Variants of: B7
Conditions: with idhp_human IDH2, P48735
Remark: another data set of the same source

Variant	effect of a mutation on the interaction
F133V	with no effect

Variants of: B7
Conditions: with idhp_human IDH2, P48735
Remark: another data set of the same source

Variant	effect of a mutation on the interaction
Y87C	with no effect

Variants of: B8
Conditions: with inhba_human INHBA

Variant	effect of a mutation on the interaction
Y87C	with no effect

Variants of: B8
Conditions: with inhba_human INHBA
Remark: another data set of the same source

Variant	effect of a mutation on the interaction
F133L	with no effect
